Source: patent publication US20200308261 (published 2020)

Tests used:
[1] = molecular target: human Aβ 1-42 (human); assay: ELISA sandwich, up to 10 ng/mL
[2] = molecular target: T1, human Aβ 11pE-42 (human); assay: ELISA sandwich, up to 10 ng/mL
T1 chain: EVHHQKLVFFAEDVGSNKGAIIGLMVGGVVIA

[3] = molecular target: human Aβ 1-40 (human); assay: ELISA sandwich, up to 10 ng/mL
[4] = molecular target: T2, rodent Aβ 3pE-40 (rodent); assay: ELISA sandwich, up to 10 ng/mL
T2 chain: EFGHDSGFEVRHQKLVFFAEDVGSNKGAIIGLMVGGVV

[5] = molecular target: T3, human Aβ 11pE-40 (human); assay: ELISA sandwich, up to 10 ng/mL
T3 chain: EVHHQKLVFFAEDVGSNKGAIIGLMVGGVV

[6] = molecular target: human Aβ 1-40 (human); assay: SPR up to 50 nM

Measured: binding result

B1: BAMB31 (antibody, V domains shown)
VH: EIQLQQSGPELVKPGTSVKVSCKASGHVFTSYDMYWVKQSHGKSLEWIGYIDSDNGDTSYNQKFKGKATLTVDKSSSTAYMHLNSLTSEDSAVYYCAYYRYAMDYWGQGTSVTVSS
VL: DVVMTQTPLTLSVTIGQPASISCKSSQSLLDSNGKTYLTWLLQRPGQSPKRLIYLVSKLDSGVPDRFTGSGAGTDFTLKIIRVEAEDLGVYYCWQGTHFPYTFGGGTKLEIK
not listed: [6]
no binding: all other assays above

B2: BAMB31_2a (mIgG2a) (antibody, V domains shown)
VH: EIQLQQSGPELVKPGTSVKVSCKASGHVFTSYDMYWVKQSHGKSLEWIGYIDSDNGDTSYNQKFKGKATLTVDKSSSTAYMHLNSLTSEDSAVYYCAYYRYAMDYWGQGTSVTVSS
VL: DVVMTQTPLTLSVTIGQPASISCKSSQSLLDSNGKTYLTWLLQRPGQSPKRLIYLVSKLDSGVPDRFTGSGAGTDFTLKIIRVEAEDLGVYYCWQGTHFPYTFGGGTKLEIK
no binding: [6]
